Data as given in the supplement of paper PMC12764529.
± gives the half width of the 95% confidence interval.

Key:
[1] = folding stability dG unfold from chymotrypsin proteolysis; higher = more stable
Method in brief: (§1)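 Mini-proteins designed to be under 80 residues and free of cysteine were carried in a PA-tagged cDNA display construct and digested with trypsin and with chymotrypsin. Each protease was applied at 11 threefold-diluted concentrations, alongside a no-protease condition, before sequencing. K50 came from Bayesian fitting of the sequencing counts, and unfolding free energy was obtained by comparing it with a sequence-predicted unfolded-state K50 and a shared folded-state K50, for each protease separately or for both together. Designs were retained only if their AlphaFold2 dimer inter-PAE exceeded 15.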

[2] = folding stability dG unfold from trypsin proteolysis; higher = more stable
Method in brief: as §1

[3] = folding stability dG unfold (combined trypsin and chymotrypsin); higher = more stable
Method in brief: as §1

Sequence | folding stability dG unfold [1] [kcal/mol] | folding stability dG unfold [2] [kcal/mol] | folding stability dG unfold [3] [kcal/mol]
SAGGSAGGSAGGKKVKITVVLEFDGVLLVAEAEIEFDENGKIVEIKVKVELFPAPEEGEESAGGSAGGSAGG [r7_135_TrROS_Hall] | 2.39 ± 0.18 | 3.21 ± 0.36 | 2.96 ± 0.48
SAGGSAGGSAGGKKVTITLKDANGKELKIEVKEGEEVTIEVGGKKYKLTVKDGKIELKPVSAGGSAGGSAGG [r7_510_TrROS_Hall] | 4.67 ± 0.23 | 4.03 ± 0.28 | 4.61 ± 0.44
SAGGSAGGSAGGKKYKIKVYVKDKKTKKWKKIKEIEVDTKEEALEAIKKLPPNYEVKIVPSAGGSAGGSAGG [r7_307_TrROS_Hall] | 5.04 ± 0.068 | 4.11 ± 0.14 | 4.91 ± 0.14
SAGGSAGGSAGGKKYKVVSIEKTKDYVRITIYNEETGELKTFTFPPGSTVTIKPGDTLTSAGGSAGGSAGGS [r10_834_TrROS_Hall] | 4.53 ± 0.15 | 3.88 ± 0.2 | 4.42 ± 0.12
SAGGSAGGSAGGKPKKILNIELVLKGKDGKKYKLKIEIYNYPDKPKIYITFPDGTTIEASAGGSAGGSAGGS [r10_404_TrMRF] | 5.28 ± 0.19 | 3.54 ± 0.13 | 5.15 ± 0.21
SAGGSAGGSAGGKPKLIVRVKIKNENGEEIEIEIEVETLDEAKEAAKKLGFEIVEVEVLSAGGSAGGSAGGS [r10_882_TrROS_Hall] | 2.54 ± 0.081 | 3.94 ± 0.23 | 3.28 ± 0.19
SAGGSAGGSAGGKPVIYRIEVRLPDSPEREIFEIEVPPDRPEVAEELAKLLGPNVKMEPLSAGGSAGGSAGG [r11_250_TrMRF] | -0.577 ± 0.49 | -0.166 ± 0.1 | -0.387 ± 0.38
SAGGSAGGSAGGKSYTDPNSNTVTTLDEGPGFGKVTTTTYKPEEPVPLETTESIIGPVLSSAGGSAGGSAGG [r7_343_JUSTAS] | -0.026 ± 0.11 | 0.367 ± 0.04 | 0.273 ± 0.24
SAGGSAGGSAGGKTITLPPGMSEEELLEALKKAKPGDTITIEVDGKTYTLKVENGKITLTSAGGSAGGSAGG [r7_560_TrROS_Hall] | 3.92 ± 0.12 | 2.31 ± 0.14 | 3.56 ± 0.12
SAGGSAGGSAGGKTIVVELEDGSKATITVDEDGNVTVEVYDEKTGEKKTFTIPAEALKPSAGGSAGGSAGGS [r10_838_TrROS_Hall] | 2.95 ± 0.066 | 2.53 ± 0.16 | 2.73 ± 0.16
SAGGSAGGSAGGKTLRIKVEETEYVVLFPNTGRLLVIPPGYEAEIELDDAPDVLILGRPPSAGGSAGGSAGG [r11_939_TrMRF] | 1.79 ± 0.16 | 0.123 ± 0.18 | 1.34 ± 0.13
SAGGSAGGSAGGKTLTLVFKTKEEAEEAAKKLGFKKVEVKEFKNEDGEKYLVVKIELKPSAGGSAGGSAGGS [r10_494_TrROS_Hall] | 3.1 ± 0.047 | 2.43 ± 0.058 | 2.94 ± 0.22
SAGGSAGGSAGGKTVLISLEDLEALKKLPPGAKVKIEPIKTPEGTVYRVNVETGKIEKVPSAGGSAGGSAGG [r7_765_TrROS_Hall] | 0.175 ± 0.26 | -0.24 ± 0.21 | 0.0992 ± 0.22
SAGGSAGGSAGGKTVWIPWDDLEELKDLPPGKKRTIHLWNPKNGRWYRITVTDNNIEIERSAGGSAGGSAGG [r7_765_TrROS] | 3.088 ± 0.013 | 2.36 ± 0.061 | 2.86 ± 0.078
